The test system of one data set is Cys. Particulars: cited from earlier work.
Data set [1] addresses Cys22 (UniProt position 23, FIKPTCPYCRR). Particulars: cited from earlier work.
Data set [2] addresses Cys22 (UniProt position 23, FIKPTCPFCRK). Conditions: cited from earlier work.
The target in data set [3] is Cys22 (UniProt position 23, FIKPTCPFARK). Conditions: cited from earlier work.
Data set [4] concerns the target Cys22 (UniProt position 23, FIKPTCPFSRK). Particulars: cited from earlier work.
Another data set relates to Cys31. Kind of data set: chemical modification. Conditions: Pre-incubation temperature not stated; the HED activity assay was run at 25°C; not stated (100 mM buffer); 100 mM sodium citrate or phosphate buffers; DTT-reduced WT protein, no ligand.
The test system of another data set is Cys23. Description: chemical modification. Conditions: Pre-incubation temperature not stated; the HED activity assay was run at 25°C; not stated (100 mM buffer); 100 mM sodium citrate or phosphate buffers; DTT-reduced WT protein, no ligand.
For the next data set, the system named is Cys37. Kind of data set: chemical modification. Conditions: Pre-incubation temperature not stated; the HED activity assay was run at 25°C; not stated (100 mM buffer); 100 mM sodium citrate or phosphate buffers; DTT-reduced WT protein, no ligand.
In a further data set the test system is Cys27. Kind of data set: chemical modification.

By pKa is commonly meant the negative logarithm of the acid dissociation constant. “Glutaredoxin 1 (CrGrx1) (Chlamydomonas reinhardtii)”: the pKa in the data set on Cys was 3.9 ± 0.1.

Turning to “Glutaredoxin 1 (HsGrx1, thioltransferase) (Homo sapiens)”, the pKa with Cys22 [1] was 3.6.

Regarding “Glutaredoxin 1 (ScGrx1) (Saccharomyces cerevisiae)”, in the data set on Cys, the pKa is given as 3.2 to 4.0 ± 0.2.

On to “Glutaredoxin 2 (CrGrx2) (Chlamydomonas reinhardtii)”, for which the pKa with Cys is on record as 4.8 ± 0.1.

Turning to Glutaredoxin 2 (HsGrx2) (Homo sapiens), the pKa with Cys is recorded as 4.6.

Turning to “Glutaredoxin 2 (ScGrx2) (Saccharomyces cerevisiae)”, the pKa in the data set on Cys is 3.1 to 3.5 ± 0.2.

In the case of “Glutaredoxin (pig liver thioltransferase) (Sus scrofa)”, in the data set with Cys22 [2], the pKa was 3.8.

Consider “Glutaredoxin (pig liver thioltransferase) C25A (Sus scrofa; C25A)”, for which the pKa with Cys22 [3] was 5.9.

As for “Glutaredoxin (pig liver thioltransferase) C25S (Sus scrofa; C25S)”, the pKa with Cys22 [4] is 4.9.

For the substance “Glutaredoxin C1 (PtGrxC1) (Populus sp. (poplar; 'Pt' prefix, species not spelled out in the article))”, the pKa in the data set on Cys31 amounted to 5.3 ± 0.1.

For the substance “Glutaredoxin C2 (PtGrxC2) (Populus sp. (poplar; 'Pt' prefix, species not spelled out in the article))”, the pKa in the data set with Cys23 worked out at 5.0 ± 0.1.

For the substance “Glutaredoxin C3 (PtGrxC3) (Populus sp. (poplar; 'Pt' prefix, species not spelled out in the article))”, in the data set with Cys37, the pKa amounted to 4.6 ± 0.1.

“Glutaredoxin C4 (PtGrxC4) (Populus sp. (poplar; 'Pt' prefix, species not spelled out in the article))” showed a pKa in the data set with Cys27 (Pre-incubation temperature not stated, the HED activity assay was run at 25°C, not stated (100 mM buffer), 100 mM sodium citrate or phosphate buffers, DTT-reduced WT protein, no ligand) of 4.6 ± 0.1.

Turning to “Glutaredoxin S12 (PtGrxS12) (Populus sp. (poplar))”, the pKa in the data set with Cys27 (cited from earlier work) is recorded as 3.9.

(Values after publication PMC3866529.)
